Source: patent publication US9969812B2, “Anti human Notch4 antibody” (Eisai R&D Management Co., Ltd., priority 2015, dated 2018)

Biological target: T1, Human Notch4-NRR Fusion Protein (Homo sapiens, UniProt Q99466)
T1 construct: Human Notch4-NRR domain Fc fusion proteins were expressed with a CHO cell line; Fc; made in house; host or cells: CHO cell line (antigen captured from culture supernatant)
T1 sequence (Q99466 1046-1445 limits assumed): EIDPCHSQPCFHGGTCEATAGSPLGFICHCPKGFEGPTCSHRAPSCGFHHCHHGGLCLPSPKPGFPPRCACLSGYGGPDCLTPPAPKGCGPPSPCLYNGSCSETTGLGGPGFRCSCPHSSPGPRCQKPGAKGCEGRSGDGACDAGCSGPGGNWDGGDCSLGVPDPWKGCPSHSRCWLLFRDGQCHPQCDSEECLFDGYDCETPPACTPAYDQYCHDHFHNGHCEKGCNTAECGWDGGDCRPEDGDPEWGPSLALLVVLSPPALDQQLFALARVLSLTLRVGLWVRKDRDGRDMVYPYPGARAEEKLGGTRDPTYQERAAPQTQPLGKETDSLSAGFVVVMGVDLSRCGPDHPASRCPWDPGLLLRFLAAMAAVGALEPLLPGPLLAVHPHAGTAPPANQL
Assay: Kinetic analysis, captured Human Notch4-NRR Fc fusion protein, humanized antibody injected
Assay type: binding
Details: Table 30, Human Notch4-NRR Fc fusion
Protocol: Kinetic analysis of further anti-Notch4 inhibitory humanized antibodies was carried out as follows. Human Notch4-NRR domain Fc fusion proteins were expressed with a CHO cell line. The antigen in the culture supernatant was captured by the anti-human Notch4 antibody fixed on a CM5 sensor chip that recognizes different epitopes of human Notch4. The humanized anti-human Notch4 antibody was then injected onto the sensor chip at various concentrations. The interaction and disassociation constants thereof were calculated according to manufacturer's instructions.
In the table below, e.g. the description “HK2L3 (Lys-)” means that the heavy chain variable region of the humanized anti-human Notch4 antibody employed in the experiment is the heavy chain variable region of the humanized anti-human Notch4 antibody heavy chain HK2 in Example 1, light chain variable region is the light chain variable region of the humanized anti-human Notch4 antibody light chain L3 in Example 1, and lysine (Lys) located at the C-terminal of the heavy chain of a common human antibody is deleted in this antibody. Those without the description “(Lys-)” mean that Lys located at the C-terminal of the heavy chain of the human antibody is not deleted.

Rmax1 (RU): 37 RU | ka: 1.82e+06 M⁻¹ s⁻¹ | kd: 0.000863 s⁻¹
B1: Antibody D: humanized anti-human Notch4 antibody, heavy chain variable region HK3, light chain variable region L5, C-terminal Lys deleted (antibody)
heavy: EVQLVESGGGLVQPGGSLRLSCAASGFTFSSYGMSWVRQAPGKGLELVATINSNGGRTYYPDSVKGRFTISRDNSKNTLYLQMGSLKAEDMAVYYCARDQGFAYWGQGTLVTVSSASTKGPSVFPLAPCSRSTSESTAALGCLVKDYFPEPVTVSWNSGALTSGVHTFPAVLQSSGLYSLSSVVTVPSSNFGTQTYTCNVDHKPSNTKVDKTVERKCCVECPPCPAPPAAAPSVFLFPPKPKDTLMISRTPEVTCVVVDVSHEDPEVQFNWYVDGVEVHNAKTKPREEQFNSTFRVVSVLTVVHQDWLNGKEYKCKVSNKGLPAPIEKTISKTKGQPREPQVYTLPPSREEMTKNQVSLTCLVKGFYPSDIAVEWESNGQPENNYKTTPPMLDSDGSFFLYSKLTVDKSRWQQGNVFSCSVMHEALHNHYTQKSLSLSPG
light: DIQMTQSPSSLSASVGDRVTITCKASQDVGTAVAWYQQKPGKSPKLLIYWASTRHTGVPSRFSGSGSGTDFTLTISSLQPEDVATYFCQQYSSYPWTFGQGTKVEIKRTVAAPSVFIFPPSDEQLKSGTASVVCLLNNFYPREAKVQWKVDNALQSGNSQESVTEQDSKDSTYSLSSTLTLSKADYEKHKVYACEVTHQGLSSPVTKSFNRGEC
